Data reported in article PMC10598214, “SaLT&PepPr is an interface-predicting language model for designing peptide-guided protein degraders” (Communications Biology, 2023).

Target: T1, β-catenin (UniProt P35222 1-781)
T1 sequence (looked up): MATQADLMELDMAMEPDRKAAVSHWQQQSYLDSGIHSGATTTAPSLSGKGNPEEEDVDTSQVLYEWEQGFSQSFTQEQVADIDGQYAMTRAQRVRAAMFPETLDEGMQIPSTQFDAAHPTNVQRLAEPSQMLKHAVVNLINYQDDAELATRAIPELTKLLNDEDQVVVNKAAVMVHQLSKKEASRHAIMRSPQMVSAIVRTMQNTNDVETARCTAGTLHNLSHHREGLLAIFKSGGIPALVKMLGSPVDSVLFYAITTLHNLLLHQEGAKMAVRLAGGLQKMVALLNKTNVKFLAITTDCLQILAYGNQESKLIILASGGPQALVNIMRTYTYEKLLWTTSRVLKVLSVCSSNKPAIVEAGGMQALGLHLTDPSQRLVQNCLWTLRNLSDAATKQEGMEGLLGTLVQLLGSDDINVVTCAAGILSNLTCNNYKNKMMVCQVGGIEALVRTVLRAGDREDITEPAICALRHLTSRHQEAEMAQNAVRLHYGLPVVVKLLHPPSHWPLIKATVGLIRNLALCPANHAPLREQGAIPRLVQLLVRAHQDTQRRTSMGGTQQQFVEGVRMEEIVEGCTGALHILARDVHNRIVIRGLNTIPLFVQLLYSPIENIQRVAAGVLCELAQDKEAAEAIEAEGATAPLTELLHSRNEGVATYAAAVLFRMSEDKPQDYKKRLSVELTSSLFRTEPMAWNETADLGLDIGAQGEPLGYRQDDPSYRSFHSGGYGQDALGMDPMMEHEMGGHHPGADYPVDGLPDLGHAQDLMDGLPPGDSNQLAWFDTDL
Test: cell-based or functional assay

- degradation of endogenous cytosolic β-catenin in transfected DLD1 cells (immunoblot densitometry, relative to non-transfected control): > 60%
B1: SnP_8 uAb (designed binder)
chain: PTAPPYDSLLVFDYEGGSGSGRLNFGDDIPSALRIAKKKRWNSIEERRIHQESELHSYLSRLIAAERERELEECQRNHEGDEDDSHVRAQQACIEAKHDKYMADMDELFSQVDEKRKKRDIPDYLCGKISFELMREPCITPSGITYDRKDIEEHLQRVGHFDPVTRSPLTQEQLIPNLAMKEVIDAFISENGWVEDY
modifications: biotinylated with EZ-Link NHS-Biotin
